Reference: paper PMC3154637 (Structure (London, England : 1993), 2011)
Values belong to the binder of their own block, whether it stands above or below them.

Key:
MBP-AMSH(1–206) = MBP-AMSH(1–206) (human, UniProt O95630 1-206); assay: SPR
His-AMSHΔC-K88A = His-AMSHΔC-K88A (human, UniProt O95630 1-146, K88A); assay: pull-down

Kd (MBP-AMSH(1–206)): 1490 nM
koff (MBP-AMSH(1–206)): 0.00581 s⁻¹
kon (MBP-AMSH(1–206)): 3890 M⁻¹ s⁻¹
B1: GST-CHMP1AΔN (domain or fragment, UniProt Q9HD42 123-196, looked up)
chain: DVHTSVMEDSMSSATTLTTPQEQVDSLIMQIAEENGLEVLDQLSQLPEGASAVGESSVRSQEDQLSRRLAALRN

binding result (His-AMSHΔC-K88A): binds
B2: GST-CHMP1BΔN (domain or fragment, UniProt Q7LBR1 126-199, looked up)
chain: DVQTQQMEDTMSSTTTLTTPQNQVDMLLQEMADEAGLDLNMELPQGQTGSVGTSVASAEQDELSQRLARLRDQV
